Experimental data from publication PMC3495168 (Biology of the cell / under the auspices of the European …, 2011).
Positions count from the first letter of the chain named. Values belong to the binder of their own block, whether it stands above or below them.

Target: GST-fused full length CIN85 (human, UniProt Q96B97-1 1-665)
Assay: pull-down

Chain of GST-fused full length CIN85 (Q96B97 whole entry, the tested form may be a part): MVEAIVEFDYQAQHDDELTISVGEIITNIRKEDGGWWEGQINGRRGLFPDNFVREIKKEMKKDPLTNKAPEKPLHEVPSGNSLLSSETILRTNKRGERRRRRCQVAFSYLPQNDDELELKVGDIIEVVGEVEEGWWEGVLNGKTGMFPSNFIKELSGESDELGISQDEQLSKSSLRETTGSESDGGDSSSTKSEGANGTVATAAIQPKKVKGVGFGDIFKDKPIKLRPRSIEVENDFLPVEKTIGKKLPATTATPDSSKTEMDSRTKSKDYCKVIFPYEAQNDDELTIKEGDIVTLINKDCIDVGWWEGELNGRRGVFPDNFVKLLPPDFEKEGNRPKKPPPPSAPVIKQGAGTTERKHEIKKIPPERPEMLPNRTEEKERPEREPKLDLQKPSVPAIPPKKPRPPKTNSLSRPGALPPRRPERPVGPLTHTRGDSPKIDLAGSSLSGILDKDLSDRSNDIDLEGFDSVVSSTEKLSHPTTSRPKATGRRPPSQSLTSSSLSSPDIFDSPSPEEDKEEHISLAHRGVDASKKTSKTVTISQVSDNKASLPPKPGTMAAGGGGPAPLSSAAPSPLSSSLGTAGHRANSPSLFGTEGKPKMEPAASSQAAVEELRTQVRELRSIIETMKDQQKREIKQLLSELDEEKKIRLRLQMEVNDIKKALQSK

- EC50: 5.6 ± 0.9 nM
B1: Flag-ARAP1 (natural protein, human, UniProt Q96P48 1-1450, looked up)
chain: MAEAGDAALSVAEWLRALHLEQYTGLFEQHGLVWATECQGLSDTRLMDMGMLLPGHRRRILAGLLRAHTSPAPAPRPTPRPVPMKRHIFRSPPVPATPPEPLPTTTEDEGLPAAPPIPPRRSCLPPTCFTTPSTAAPDPVLPPLPAKRHLAELSVPPVPPRTGPPRLLVSLPTKEEESLLPSLSSPPQPQSEEPLSTLPQGPPQPPSPPPCPPEIPPKPVRLFPEFDDSDYDEVPEEGPGAPARVMTKKEEPPPSRVPRAVRVASLLSEGEELSGDDQGDEEEDDHAYEGVPNGGWHTSSLSLSLPSTIAAPHPMDGPPGGSTPVTPVIKAGWLDKNPPQGSYIYQKRWVRLDTDHLRYFDSNKDAYSKRFISVACISHVAAIGDQKFEVITNNRTFAFRAESDVERKEWMQALQQAMAEQRARARLSSAYLLGVPGSEQPDRAGSLELRGFKNKLYVAVVGDKVQLYKNLEEYHLGIGITFIDMSVGNVKEVDRRSFDLTTPYRIFSFSADSELEKEQWLEAMQGAIAEALSTSEVAERIWAAAPNRFCADCGAPQPDWASINLCVVICKRCAGEHRGLGAGVSKVRSLKMDRKVWTETLIELFLQLGNGAGNRFWAANVPPSEALQPSSSPSTRRCHLEAKYREGKYRRYHPLFGNQEELDKALCAAVTTTDLAETQALLGCGAGINCFSGDPEAPTPLALAEQAGQTLQMEFLRNNRTTEVPRLDSMKPLEKHYSVVLPTVSHSGFLYKTASAGKLLQDRRAREEFSRRWCVLGDGVLSYFENERAVTPNGEIRASEIVCLAVPPPDTHGFEHTFEVYTEGERLYLFGLESAEQAHEWVKCIAKAFVPPLAEDLLARDFERLGRLPYKAGLSLQRAQEGWFSLSGSELRAVFPEGPCEEPLQLRKLQELSIQGDSENQVLVLVERRRTLYIQGERRLDFMGWLGAIQKAAASMGDTLSEQQLGDSDIPVIVYRCVDYITQCGLTSEGIYRKCGQTSKTQRLLESLRQDARSVHLKEGEQHVDDVSSALKRFLRDLPDGLFTRAQRLTWLEASEIEDEEEKVSRYRELLVRLPPVNRATVKALISHLYCVQCFSDTNQMNVHNLAIVFGPTLFQTDGQDYKAGRVVEDLINHYVVVFSVDEEELRKQREEITAIVKMRVAGTASGTQHAGDFICTVYLEEKKAETEQHIKVPASMTAEELTLEILDRRNVGIREKDYWTCFEVNEREEAERPLHFAEKVLPILHGLGTDSHLVVKKHQAMEAMLLYLASRVGDTKHGMMKFREDRSLLGLGLPSGGFHDRYFILNSSCLRLYKEVRSQRPWSGAPETSHRPEKEWPIKSLKVYLGVKKKLRPPTCWGFTVVHETEKHEKQQWYLCCDTQMELREWFATFLFVQHDGLVWPSEPSRVSRAVPEVRLGSVSLIPLRGSENEMRRSVAAFTADPLSLLRNV

- fold more GST-CIN85 required for similar binding than for Flag-ARAP1: 8 fold
B2: Flag-[R86/90A]ARAP1 (natural protein, human, UniProt Q96P48 1-1450, looked up)
chain: B1 chain with R86A, R90A
